{"source": "paper PMC6882821", "about": "“Production of recombinant soluble dimeric C-type lectin-like receptors of rat natural killer cells” (Scientific Reports, 2019)", "molecules": {"B1": {"name": "NKR-P1B^WAG V78-S223, histidine-tagged, expressed from pHLsec (domain or fragment, rat (WAG strain))", "chain": "ETGVQENRTKTTDSPTKLKCPKDWHSHQDKCFHVSQAPNTWNKSLADCGGKGATLLLIQDQEELRFLRNLTKGKDRSFWIGLNYTLPDKNWKWINSSTLNSDVLSIFGDTKQNSCASISQDKVLSESCDSDNLWICQKELKCECMCNGS", "notes": "residues that the pHLsec vector adds to the N-terminus of the construct; rat NKR-P1B of the WAG strain, extracellular part with slightly shortened N-terminus, V78-S223; source: suspension-adapted HEK293T, transiently transfected, secreted, culture supernatant"}, "B2": {"name": "NKR-P1B^WAG ectodomain cleaved from the pYD5 Fc fusion by TEV protease (domain or fragment, rat (WAG strain), UniProt Q5NKN4 78-223, looked up)", "chain": "VQENRTKTTDSPTKLKCPKDWHSHQDKCFHVSQAPNTWNKSLADCGGKGATLLLIQDQEELRFLRNLTKGKDRSFWIGLNYTLPDKNWKWINSSTLNSDVLSIFGDTKQNSCASISQDKVLSESCDSDNLWICQKELKCECMCNGS", "notes": "rat NKR-P1B of the WAG strain, ectodomain construct V78-S223; Disulphide dimer; also called pYD5_NKR-P1B^WAG cleaved off by TEV protease; not shown: Fc (human IgG), N-terminal, cleaved"}, "B3": {"name": "NKR-P1B^SD ectodomain cleaved from the pYD5 Fc fusion by TEV protease (domain or fragment, rat (SD strain), UniProt A4KWA1 78-223, looked up)", "chain": "VQENRTKTTDSPAKLKCPKDWHSHQDKCFHVSQTSITWKGSLADCGGKGATLLLVQDQEELRFLRNLTKRISSSFWIGLSYTLSDEKWKWINGSTLNSDALNITGDTEKDSCASVSQDKVLSESCDSDNIWICQKELKRESTCNDS", "notes": "rat NKR-P1B of the SD strain, ectodomain construct V78-S223; Obtained as a separable mixture of monomer and covalent dimer; also called pYD5_NKR-P1B^SD (monomeric and dimeric fractions); not shown: Fc (human IgG), N-terminal, cleaved"}}, "key": {"[1]": {"biological_target": "Clr-11-FcHis fusion protein (Clr-11^WAG in pHLsec-FcHis, uncleaved) (rat (WAG strain) | human) (UniProt Q0H8B9)", "experiment": "SEC; gel filtration on Superdex 200 HR 10/30, room temperature"}, "[2]": {"biological_target": "Clr-11-FcHis fusion protein (Clr-11^WAG in pHLsec-FcHis, uncleaved) (rat (WAG strain) | human) (UniProt Q0H8B9)", "experiment": "AUC; sedimentation velocity, 0.2 mg/ml, 48000 rpm, 20 °C, 10 mM HEPES pH 7.0, 150 mM NaCl, 10 mM NaN3, c(s) model"}, "[3]": {"biological_target": "Clr-11^WAG V65-M207, histidine-tagged, expressed from pHLsec (rat (WAG strain)) (UniProt Q0H8B9)", "experiment": "SEC; gel filtration on Superdex 200 HR 10/30, room temperature"}, "[4]": {"biological_target": "Clr-11^WAG V65-M207, histidine-tagged, expressed from pHLsec (rat (WAG strain)) (UniProt Q0H8B9)", "experiment": "AUC; sedimentation equilibrium, 0.1 mg/ml, 12-15-18-21-24000 rpm, 4 °C, non-interacting discrete species model"}, "[5]": {"biological_target": "Clr-11^WAG V65-M207, histidine-tagged, expressed from pHLsec (rat (WAG strain)) (UniProt Q0H8B9)", "experiment": "AUC; sedimentation velocity, 0.2 mg/ml, 48000 rpm, 20 °C, 10 mM HEPES pH 7.0, 150 mM NaCl, 10 mM NaN3, c(s) model"}, "[6]": {"biological_target": "Clr-11^WAG V65-M207, histidine-tagged, expressed from pHLsec (rat (WAG strain)) (UniProt Q0H8B9)", "experiment": "non-reducing SDS-PAGE with Western blot; small-scale expression test; 10 ul of culture supernatant 3 days after transfection, 15% SDS-PAGE under non-reducing conditions, detected by PentaHis mAb; shows covalent dimers"}, "[7]": {"biological_target": "Clr-11^WAG cleaved from the pHLsec-FcHis fusion by HRV 3C protease (rat (WAG strain)) (UniProt Q0H8B9)", "experiment": "SEC; gel filtration on Superdex 200 HR 10/30, room temperature"}, "[8]": {"biological_target": "Clr-11^WAG cleaved from the pHLsec-FcHis fusion by HRV 3C protease (rat (WAG strain)) (UniProt Q0H8B9)", "experiment": "AUC; sedimentation velocity, 0.2 mg/ml, 48000 rpm, 20 °C, 10 mM HEPES pH 7.0, 150 mM NaCl, 10 mM NaN3, c(s) model"}, "[9]": {"biological_target": "NKR-P1B^SD C-terminal FcHis fusion protein (pHLsec-FcHis, uncleaved) (rat (SD strain) | human) (UniProt A4KWA1)", "experiment": "not stated; data not shown; purified C-terminal FcHis fusion proteins"}, "[10]": {"biological_target": "NKR-P1B^WAG C-terminal FcHis fusion protein (pHLsec-FcHis, uncleaved) (rat (WAG strain) | human) (UniProt Q5NKN4)", "experiment": "not stated; data not shown; purified C-terminal FcHis fusion proteins"}, "[11]": {"biological_target": "pYD5 Fc-NKR-P1B^SD fusion protein (uncleaved) (human | rat (SD strain)) (UniProt A4KWA1)", "experiment": "SEC; gel filtration on Superdex 200 HR 10/30, room temperature"}, "[12]": {"biological_target": "pYD5 Fc-NKR-P1B^SD fusion protein (uncleaved) (human | rat (SD strain)) (UniProt A4KWA1)", "experiment": "AUC; sedimentation velocity, 0.2 mg/ml, 48000 rpm, 20 °C, 10 mM HEPES pH 7.0, 150 mM NaCl, 10 mM NaN3, c(s) model"}, "[13]": {"biological_target": "pYD5 Fc-NKR-P1B^WAG fusion protein (uncleaved) (human | rat (WAG strain)) (UniProt Q5NKN4)", "experiment": "SEC; gel filtration on Superdex 200 HR 10/30, room temperature"}, "[14]": {"biological_target": "pYD5 Fc-NKR-P1B^WAG fusion protein (uncleaved) (human | rat (WAG strain)) (UniProt Q5NKN4)", "experiment": "AUC; sedimentation velocity, 0.2 mg/ml, 48000 rpm, 20 °C, 10 mM HEPES pH 7.0, 150 mM NaCl, 10 mM NaN3, c(s) model"}, "[15]": {"biological_target": "the molecule itself", "experiment": "non-reducing SDS-PAGE with Western blot; small-scale expression test; 10 ul of culture supernatant 3 days after transfection, 15% SDS-PAGE under non-reducing conditions, detected by PentaHis mAb; shows covalent dimers"}, "[16]": {"biological_target": "the molecule itself", "experiment": "SEC + other: non-reducing SDS-PAGE; gel filtration on Superdex 200 HR 10/30 after TEV cleavage, and 4-20% SDS-PAGE under reducing and non-reducing conditions"}}, "data": [{"molecule": "Clr-11-FcHis fusion protein (Clr-11^WAG in pHLsec-FcHis, uncleaved) (from UniProt Q0H8B9 65-207) (Fc fusion)", "values": [{"measurement": "stoichiometry N", "setting": "[1]", "result": 2}, {"measurement": "stoichiometry N", "setting": "[2]", "result": 2}]}, {"molecule": "Clr-11^WAG V65-M207, histidine-tagged, expressed from pHLsec (from UniProt Q0H8B9 65-207) (domain or fragment)", "values": [{"measurement": "stoichiometry N", "setting": "[3]", "result": 2}, {"measurement": "stoichiometry N", "setting": "[4]", "result": 2}, {"measurement": "stoichiometry N", "setting": "[5]", "result": 2}, {"measurement": "stoichiometry N", "setting": "[6]", "result": 2}]}, {"molecule": "Clr-11^WAG cleaved from the pHLsec-FcHis fusion by HRV 3C protease (from UniProt Q0H8B9 65-207) (domain or fragment)", "values": [{"measurement": "stoichiometry N", "setting": "[7]", "result": 2}, {"measurement": "stoichiometry N", "setting": "[8]", "result": 2}]}, {"molecule": "NKR-P1B^SD C-terminal FcHis fusion protein (pHLsec-FcHis, uncleaved) (from UniProt A4KWA1 78-223) (Fc fusion)", "values": [{"measurement": "stoichiometry N", "setting": "[9]", "result": 2}]}, {"molecule": "NKR-P1B^WAG C-terminal FcHis fusion protein (pHLsec-FcHis, uncleaved) (from UniProt Q5NKN4 78-223) (Fc fusion)", "values": [{"measurement": "stoichiometry N", "setting": "[10]", "result": 2}]}, {"molecule": "pYD5 Fc-NKR-P1B^SD fusion protein (uncleaved) (from UniProt A4KWA1 78-223) (Fc fusion)", "values": [{"measurement": "stoichiometry N", "setting": "[11]", "result": 2}, {"measurement": "stoichiometry N", "setting": "[12]", "result": 2}]}, {"molecule": "pYD5 Fc-NKR-P1B^WAG fusion protein (uncleaved) (from UniProt Q5NKN4 78-223) (Fc fusion)", "values": [{"measurement": "stoichiometry N", "setting": "[13]", "result": 2}, {"measurement": "stoichiometry N", "setting": "[14]", "result": 2}]}, {"molecule": "B1", "values": [{"measurement": "stoichiometry N", "setting": "[15]", "result": 2}]}, {"molecule": "B2", "values": [{"measurement": "stoichiometry N", "setting": "[16]", "result": 2}]}, {"molecule": "B3", "values": [{"measurement": "stoichiometry N", "setting": "[16]", "result": 2}]}]}
